Biological target: T1, CD3 epsilon homodimer protein (UniProt P07766 23-126)
T1 construct: immobilized on Sensor chip CM4 by amine coupling; also called CD3 (CD3 epsilon)
Assay: SPR (Biacore T200), CD3 epsilon homodimer on CM4 chip, one-arm antibody as analyte, 25 C;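 note: homodimer attached to the sensor surface via amine coupling, HBS-EP+ used as running buffer during binding runs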

T1 sequence (P07766 23-126): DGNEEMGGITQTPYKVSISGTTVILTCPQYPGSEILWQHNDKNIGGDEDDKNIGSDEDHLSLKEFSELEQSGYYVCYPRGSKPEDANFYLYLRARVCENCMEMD

Row | ratio of amounts bound (altered form / CE115HA000) | Binder
1 | 1.34 | CE115HA000 A52aD one-arm antibody (antibody, human IgG1, kappa, L234A L235A, N297A, name in Kabat numbering) heavy: QVQLVESGGGVVQPGRSLRLSCAASGFTFSNAWMHWVRQAPGKGLEWVAQIKDKSNNYATYYAESVKGRFTISRDDSKNSLYLQMNSLKTEDTAVYYCRYVHYGAYYGVDAWGQGTTVTVSSASTKGPSVFPLAPSSKSTSGGTAALGCLVKDYFPEPVTVSWNSGALTSGVHTFPAVLQSSGLYSLSSVVTVPSSSLGTQTYICNVNHKPSNTKVDKKVEPKSCDKTHTCPPCPAPEAAGGPSVFLFPPKPKDTLMISRTPEVTCVVVDVSHEDPEVKFNWYVDGVEVHNAKTKPREEQYASTYRVVSVLTVLHQDWLNGKEYKCKVSNKALPAPIEKTISKAKGQPREPQVYTLPPSRCELTKNQVSLSCAVKGFYPSDIAVEWESNGQPENNYKTTPPVLDSDGSFFLVSKLTVDKSRWQQGNVFSCSVMHEALHNHYTQKSLSLSPDYKDDDDK EPKSSDKTHTCPPCPAPELLGGPSVFLFPPKPKDTLMISRTPEVTCVVVDVSHEDPEVKFNWYVDGVEVHNAKTKPREEQYNSTYRVVSVLTVLHQDWLNGKEYKCKVSNKALPAPIEKTISKAKGQPREPQVCTLPPSRDELTKNQVSLWCLVKGFYPSDIAVEWESNGQPENNYKTTPPVLDSDGSFFLYSKLTVDKSRWQQGNVFSCSVMHEALHNRYTQKSLSLSP light: DIVMTQSPLSLPVTPGEPASISCRSSQSLVHSNRNTYLHWYQQKPGQAPRLLIYKVSNRFSGVPDRFSGSGSGTDFTLKISRVEAEDVGVYYCGQGTQVPYTFGQGTKLEIKRTVAAPSVFIFPPSDEQLKSGTASVVCLLNNFYPREAKVQWKVDNALQSGNSQESVTEQDSKDSTYSLSSTLTLSKADYEKHKVYACEVTHQGLSSPVTKSFNRGEC
2 | 0.57 | CE115HA000 A52aE one-arm antibody (antibody, human IgG1, kappa, L234A L235A, N297A, name in Kabat numbering) heavy: QVQLVESGGGVVQPGRSLRLSCAASGFTFSNAWMHWVRQAPGKGLEWVAQIKEKSNNYATYYAESVKGRFTISRDDSKNSLYLQMNSLKTEDTAVYYCRYVHYGAYYGVDAWGQGTTVTVSSASTKGPSVFPLAPSSKSTSGGTAALGCLVKDYFPEPVTVSWNSGALTSGVHTFPAVLQSSGLYSLSSVVTVPSSSLGTQTYICNVNHKPSNTKVDKKVEPKSCDKTHTCPPCPAPEAAGGPSVFLFPPKPKDTLMISRTPEVTCVVVDVSHEDPEVKFNWYVDGVEVHNAKTKPREEQYASTYRVVSVLTVLHQDWLNGKEYKCKVSNKALPAPIEKTISKAKGQPREPQVYTLPPSRCELTKNQVSLSCAVKGFYPSDIAVEWESNGQPENNYKTTPPVLDSDGSFFLVSKLTVDKSRWQQGNVFSCSVMHEALHNHYTQKSLSLSPDYKDDDDK EPKSSDKTHTCPPCPAPELLGGPSVFLFPPKPKDTLMISRTPEVTCVVVDVSHEDPEVKFNWYVDGVEVHNAKTKPREEQYNSTYRVVSVLTVLHQDWLNGKEYKCKVSNKALPAPIEKTISKAKGQPREPQVCTLPPSRDELTKNQVSLWCLVKGFYPSDIAVEWESNGQPENNYKTTPPVLDSDGSFFLYSKLTVDKSRWQQGNVFSCSVMHEALHNRYTQKSLSLSP light: DIVMTQSPLSLPVTPGEPASISCRSSQSLVHSNRNTYLHWYQQKPGQAPRLLIYKVSNRFSGVPDRFSGSGSGTDFTLKISRVEAEDVGVYYCGQGTQVPYTFGQGTKLEIKRTVAAPSVFIFPPSDEQLKSGTASVVCLLNNFYPREAKVQWKVDNALQSGNSQESVTEQDSKDSTYSLSSTLTLSKADYEKHKVYACEVTHQGLSSPVTKSFNRGEC
3 | 0.81 | CE115HA000 A52aG one-arm antibody (antibody, human IgG1, kappa, L234A L235A, N297A, name in Kabat numbering) heavy: QVQLVESGGGVVQPGRSLRLSCAASGFTFSNAWMHWVRQAPGKGLEWVAQIKGKSNNYATYYAESVKGRFTISRDDSKNSLYLQMNSLKTEDTAVYYCRYVHYGAYYGVDAWGQGTTVTVSSASTKGPSVFPLAPSSKSTSGGTAALGCLVKDYFPEPVTVSWNSGALTSGVHTFPAVLQSSGLYSLSSVVTVPSSSLGTQTYICNVNHKPSNTKVDKKVEPKSCDKTHTCPPCPAPEAAGGPSVFLFPPKPKDTLMISRTPEVTCVVVDVSHEDPEVKFNWYVDGVEVHNAKTKPREEQYASTYRVVSVLTVLHQDWLNGKEYKCKVSNKALPAPIEKTISKAKGQPREPQVYTLPPSRCELTKNQVSLSCAVKGFYPSDIAVEWESNGQPENNYKTTPPVLDSDGSFFLVSKLTVDKSRWQQGNVFSCSVMHEALHNHYTQKSLSLSPDYKDDDDK EPKSSDKTHTCPPCPAPELLGGPSVFLFPPKPKDTLMISRTPEVTCVVVDVSHEDPEVKFNWYVDGVEVHNAKTKPREEQYNSTYRVVSVLTVLHQDWLNGKEYKCKVSNKALPAPIEKTISKAKGQPREPQVCTLPPSRDELTKNQVSLWCLVKGFYPSDIAVEWESNGQPENNYKTTPPVLDSDGSFFLYSKLTVDKSRWQQGNVFSCSVMHEALHNRYTQKSLSLSP light: DIVMTQSPLSLPVTPGEPASISCRSSQSLVHSNRNTYLHWYQQKPGQAPRLLIYKVSNRFSGVPDRFSGSGSGTDFTLKISRVEAEDVGVYYCGQGTQVPYTFGQGTKLEIKRTVAAPSVFIFPPSDEQLKSGTASVVCLLNNFYPREAKVQWKVDNALQSGNSQESVTEQDSKDSTYSLSSTLTLSKADYEKHKVYACEVTHQGLSSPVTKSFNRGEC
4 | 1.05 | CE115HA000 A52aS one-arm antibody (antibody, human IgG1, kappa, L234A L235A, N297A, name in Kabat numbering) heavy: QVQLVESGGGVVQPGRSLRLSCAASGFTFSNAWMHWVRQAPGKGLEWVAQIKSKSNNYATYYAESVKGRFTISRDDSKNSLYLQMNSLKTEDTAVYYCRYVHYGAYYGVDAWGQGTTVTVSSASTKGPSVFPLAPSSKSTSGGTAALGCLVKDYFPEPVTVSWNSGALTSGVHTFPAVLQSSGLYSLSSVVTVPSSSLGTQTYICNVNHKPSNTKVDKKVEPKSCDKTHTCPPCPAPEAAGGPSVFLFPPKPKDTLMISRTPEVTCVVVDVSHEDPEVKFNWYVDGVEVHNAKTKPREEQYASTYRVVSVLTVLHQDWLNGKEYKCKVSNKALPAPIEKTISKAKGQPREPQVYTLPPSRCELTKNQVSLSCAVKGFYPSDIAVEWESNGQPENNYKTTPPVLDSDGSFFLVSKLTVDKSRWQQGNVFSCSVMHEALHNHYTQKSLSLSPDYKDDDDK EPKSSDKTHTCPPCPAPELLGGPSVFLFPPKPKDTLMISRTPEVTCVVVDVSHEDPEVKFNWYVDGVEVHNAKTKPREEQYNSTYRVVSVLTVLHQDWLNGKEYKCKVSNKALPAPIEKTISKAKGQPREPQVCTLPPSRDELTKNQVSLWCLVKGFYPSDIAVEWESNGQPENNYKTTPPVLDSDGSFFLYSKLTVDKSRWQQGNVFSCSVMHEALHNRYTQKSLSLSP light: DIVMTQSPLSLPVTPGEPASISCRSSQSLVHSNRNTYLHWYQQKPGQAPRLLIYKVSNRFSGVPDRFSGSGSGTDFTLKISRVEAEDVGVYYCGQGTQVPYTFGQGTKLEIKRTVAAPSVFIFPPSDEQLKSGTASVVCLLNNFYPREAKVQWKVDNALQSGNSQESVTEQDSKDSTYSLSSTLTLSKADYEKHKVYACEVTHQGLSSPVTKSFNRGEC
5 | 0.52 | CE115HA000 A52aV one-arm antibody (antibody, human IgG1, kappa, L234A L235A, N297A, name in Kabat numbering) heavy: QVQLVESGGGVVQPGRSLRLSCAASGFTFSNAWMHWVRQAPGKGLEWVAQIKVKSNNYATYYAESVKGRFTISRDDSKNSLYLQMNSLKTEDTAVYYCRYVHYGAYYGVDAWGQGTTVTVSSASTKGPSVFPLAPSSKSTSGGTAALGCLVKDYFPEPVTVSWNSGALTSGVHTFPAVLQSSGLYSLSSVVTVPSSSLGTQTYICNVNHKPSNTKVDKKVEPKSCDKTHTCPPCPAPEAAGGPSVFLFPPKPKDTLMISRTPEVTCVVVDVSHEDPEVKFNWYVDGVEVHNAKTKPREEQYASTYRVVSVLTVLHQDWLNGKEYKCKVSNKALPAPIEKTISKAKGQPREPQVYTLPPSRCELTKNQVSLSCAVKGFYPSDIAVEWESNGQPENNYKTTPPVLDSDGSFFLVSKLTVDKSRWQQGNVFSCSVMHEALHNHYTQKSLSLSPDYKDDDDK EPKSSDKTHTCPPCPAPELLGGPSVFLFPPKPKDTLMISRTPEVTCVVVDVSHEDPEVKFNWYVDGVEVHNAKTKPREEQYNSTYRVVSVLTVLHQDWLNGKEYKCKVSNKALPAPIEKTISKAKGQPREPQVCTLPPSRDELTKNQVSLWCLVKGFYPSDIAVEWESNGQPENNYKTTPPVLDSDGSFFLYSKLTVDKSRWQQGNVFSCSVMHEALHNRYTQKSLSLSP light: DIVMTQSPLSLPVTPGEPASISCRSSQSLVHSNRNTYLHWYQQKPGQAPRLLIYKVSNRFSGVPDRFSGSGSGTDFTLKISRVEAEDVGVYYCGQGTQVPYTFGQGTKLEIKRTVAAPSVFIFPPSDEQLKSGTASVVCLLNNFYPREAKVQWKVDNALQSGNSQESVTEQDSKDSTYSLSSTLTLSKADYEKHKVYACEVTHQGLSSPVTKSFNRGEC
6 | 0.15 | CE115HA000 A52aP one-arm antibody (antibody, human IgG1, kappa, L234A L235A, N297A, name in Kabat numbering) heavy: QVQLVESGGGVVQPGRSLRLSCAASGFTFSNAWMHWVRQAPGKGLEWVAQIKPKSNNYATYYAESVKGRFTISRDDSKNSLYLQMNSLKTEDTAVYYCRYVHYGAYYGVDAWGQGTTVTVSSASTKGPSVFPLAPSSKSTSGGTAALGCLVKDYFPEPVTVSWNSGALTSGVHTFPAVLQSSGLYSLSSVVTVPSSSLGTQTYICNVNHKPSNTKVDKKVEPKSCDKTHTCPPCPAPEAAGGPSVFLFPPKPKDTLMISRTPEVTCVVVDVSHEDPEVKFNWYVDGVEVHNAKTKPREEQYASTYRVVSVLTVLHQDWLNGKEYKCKVSNKALPAPIEKTISKAKGQPREPQVYTLPPSRCELTKNQVSLSCAVKGFYPSDIAVEWESNGQPENNYKTTPPVLDSDGSFFLVSKLTVDKSRWQQGNVFSCSVMHEALHNHYTQKSLSLSPDYKDDDDK EPKSSDKTHTCPPCPAPELLGGPSVFLFPPKPKDTLMISRTPEVTCVVVDVSHEDPEVKFNWYVDGVEVHNAKTKPREEQYNSTYRVVSVLTVLHQDWLNGKEYKCKVSNKALPAPIEKTISKAKGQPREPQVCTLPPSRDELTKNQVSLWCLVKGFYPSDIAVEWESNGQPENNYKTTPPVLDSDGSFFLYSKLTVDKSRWQQGNVFSCSVMHEALHNRYTQKSLSLSP light: DIVMTQSPLSLPVTPGEPASISCRSSQSLVHSNRNTYLHWYQQKPGQAPRLLIYKVSNRFSGVPDRFSGSGSGTDFTLKISRVEAEDVGVYYCGQGTQVPYTFGQGTKLEIKRTVAAPSVFIFPPSDEQLKSGTASVVCLLNNFYPREAKVQWKVDNALQSGNSQESVTEQDSKDSTYSLSSTLTLSKADYEKHKVYACEVTHQGLSSPVTKSFNRGEC

Source: patent US20210388087A1 (Chugai, published 2021)
